Assay results as given in patent US20050142135A1 (UNIVERSITY OF KENTUCKY RESEARCH FOUNDATION, published 2005).

Experiments:
[1] = molecular target: T1, human LH receptor, wild type (human, UniProt P22888 27-699); assay: competition of 125I-hCG binding to cells expressing LHR
T1 construct: whole, on cells; stably expressed in HEK 293 cells; This holds for all LHR mutants and LHR peptides below; also called LH/CG receptor
Protocol: The Kd values were determined by Scatchard plots. For intracellular cAMP assay, cells were washed twice with Dulbecco's modified Eagle's media and incubated in the media containing isobutylmethylxanthine (0.1 mg/ml) for 15 minutes. Increasing concentrations of hormone were then added and the incubation was continued for 45 minutes at 37° C. After removing the media, the cells were rinsed once with fresh media without isobutylmethylxanthine, lysed in 70% ethanol, freeze-thawed in liquid nitrogen, and scraped.

human FSH = molecular target: T2, human FSH (human, UniProt P01215 25-116; P01225 19-129); assay: 125I-FSH competition binding on HEK293 cells, Scatchard
T2 construct: heterodimer, purchased from the National Hormone and Pituitary Program; also called follicle stimulating hormone
Protocol: The Kd values were determined by Scatchard plots. Truncated exodomain was solubilized in Nonidet P-40 and assayed for hormone binding as described previously. For intracellular cAMP assay, cells were washed twice with Dulbecco's modified Eagle's media and incubated in the media containing isobutylmethylxanthine (0.1 mg/ml) for 15 minutes. […] After removing the media, the cells were rinsed once with fresh media without isobutylmethylxanthine, lysed in 70% ethanol, freeze-thawed in liquid nitrogen, and scraped. After pelleting cell debris at 16,000×g for 10 minutes at 4° C., the supernatant was collected, dried under vacuum and resuspended in 10 μl of the cAMP assay buffer, which was provided by the manufacturer. cAMP concentrations were determined with an ¹²⁵I-cAMP assay kit (Amersham) following the manufacturer's instruction and validated for use in our laboratory. Exoloop 3 of FSHR was modeled based on the crystal structure of rhodopsin as a template.

T1 sequence (P22888 27-699): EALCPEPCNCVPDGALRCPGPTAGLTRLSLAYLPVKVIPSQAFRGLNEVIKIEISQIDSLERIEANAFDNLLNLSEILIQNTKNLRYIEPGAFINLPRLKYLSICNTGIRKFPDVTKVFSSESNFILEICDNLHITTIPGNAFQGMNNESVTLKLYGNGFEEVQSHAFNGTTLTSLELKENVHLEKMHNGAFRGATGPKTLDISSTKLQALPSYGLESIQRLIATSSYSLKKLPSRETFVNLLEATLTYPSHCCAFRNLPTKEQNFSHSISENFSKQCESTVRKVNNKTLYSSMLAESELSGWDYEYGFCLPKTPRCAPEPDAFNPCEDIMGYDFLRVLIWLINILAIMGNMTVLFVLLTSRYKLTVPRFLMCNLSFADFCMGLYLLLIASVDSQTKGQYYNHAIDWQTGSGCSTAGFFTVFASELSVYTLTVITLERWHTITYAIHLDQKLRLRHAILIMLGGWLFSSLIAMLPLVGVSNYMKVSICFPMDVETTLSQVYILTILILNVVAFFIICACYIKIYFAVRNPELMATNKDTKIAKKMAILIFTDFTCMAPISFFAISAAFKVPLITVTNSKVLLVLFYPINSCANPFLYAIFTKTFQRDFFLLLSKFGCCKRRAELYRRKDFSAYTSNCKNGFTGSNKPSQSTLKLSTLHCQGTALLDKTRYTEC

potency relative to LHR^exo3 in inhibiting ^125I-hCG binding to LHR [1] | Kd (human FSH) | Binder
> 10000 fold | – | hCG (ligand, purchased from the National Hormone and Pituitary Program; also called human chorionic gonadotropin) chain 1: not shown chain 2: SKEPLRPRCRPINATLAVEKEGCPVCITVNTTICAGYCPTMTRVLQGVLPALPQVVCNYRDVRFESIRLPGCPRGVNPVVSYAVALSCQCALCRRSTTDCGGPKDHPLTCDDPRFQDSSSSKAPPPSLPSPSRLPGPSDTPILPQ
– | 50 nM | FSHR^K590F (receptor) CHHRICHCSNRVFLCQESKVTEIPSDLPRNAIELRFVLTKLRVIQKGAFSGFGDLEKIEISQNDVLEVIEADVFSNLPKLHEIRIEKANNLLYINPEAFQNLPNLQYLLISNTGIKHLPDVHKIHSLQKVLLDIQDNINIHTIERNSFVGLSFESVILWLNKNGIQEIHNCAFNGTQLDELNLSDNNNLEELPNDVFHGASGPVILDISRTRIHSLPSYGLENLKKLRARSTYNLKKLPTLEKLVALMEASLTYPSHCCAFANWRRQISELHPICNKSILRQEVDYMTQARGQRSSLAEDNESSYSRGFDMTYTEFDYDLCNEVVDVTCSPKPDAFNPCEDIMGYNILRVLIWFISILAITGNIIVLVILTTSQYKLTVPRFLMCNLAFADLCIGIYLLLIASVDIHTKSQYHNYAIDWQTGAGCDAAGFFTVFASELSVYTLTAITLERWHTITHAMQLDCKVQLRHAASVMVMGWIFAFAAALFPIFGISSYMKVSICLPMDIDSPLSQLYVMSLLVLNVLAFVVICGCYIHIYLTVRNPNIVSSSSDTRIAKRMAMLIFTDFLCMAPISFFAISASLKVPLITVSKAFILLVLFHPINSCANPFLYAIFTKNFRRDFFILLSKCGCYEMQAQIYRTETSSTVHNTHPRNGHCSSAPRVTSGSTYILVPLSHLAQN
– | 7.2 nM | FSHR^K590L (receptor) CHHRICHCSNRVFLCQESKVTEIPSDLPRNAIELRFVLTKLRVIQKGAFSGFGDLEKIEISQNDVLEVIEADVFSNLPKLHEIRIEKANNLLYINPEAFQNLPNLQYLLISNTGIKHLPDVHKIHSLQKVLLDIQDNINIHTIERNSFVGLSFESVILWLNKNGIQEIHNCAFNGTQLDELNLSDNNNLEELPNDVFHGASGPVILDISRTRIHSLPSYGLENLKKLRARSTYNLKKLPTLEKLVALMEASLTYPSHCCAFANWRRQISELHPICNKSILRQEVDYMTQARGQRSSLAEDNESSYSRGFDMTYTEFDYDLCNEVVDVTCSPKPDAFNPCEDIMGYNILRVLIWFISILAITGNIIVLVILTTSQYKLTVPRFLMCNLAFADLCIGIYLLLIASVDIHTKSQYHNYAIDWQTGAGCDAAGFFTVFASELSVYTLTAITLERWHTITHAMQLDCKVQLRHAASVMVMGWIFAFAAALFPIFGISSYMKVSICLPMDIDSPLSQLYVMSLLVLNVLAFVVICGCYIHIYLTVRNPNIVSSSSDTRIAKRMAMLIFTDFLCMAPISFFAISASLKVPLITVSKALILLVLFHPINSCANPFLYAIFTKNFRRDFFILLSKCGCYEMQAQIYRTETSSTVHNTHPRNGHCSSAPRVTSGSTYILVPLSHLAQN
